Results published in patent US7335638B2, “Prevention and treatment of mycoplasma-associated diseases” (priority 2000, dated 2008).

System: adenocarcinoma of Walker
Test: Treatment of experimental adenocarcinoma in rats (Walker tumor)
Format: in vivo, rat
Settings: both died after 12 days of treatment; prolactine added to TS, PDTC and plant extract
Source text: Malignant neoplasia was induced experimentally by inoculation of 500,000 cells of adenocarcinoma of Walker in the right flank of several rats in order to verify if the use of simultaneous anti-proliferative and anti-oxidative drugs may decrease the growing of the neoplasia and the level of metastases. Usually the animals receiving such inoculation of adecarcinoma cells survived for 10-12 days and presented metastasis to many ganglia, liver and lung. Nine of these animals were inoculated after 7 days of tumor cells with 0.5 ml of trans-sialidase TS (supernatant of culture of T. cruzi) as described in the U.S. patent application Ser. No. 10/086,913, filed Mar. 1, 2002 and with 0.75 mg of PDTC, into the peritoneum every day. The particles containing DNA or RNA prepared from plant extracts (garlic, Ginkgo biloba and tomato) as described above was also administered. All animals received 0.5 ml of garlic extract by subcutaneous route (Table 1 below). The tumors were similar in size for all animals at the beginning of the treatment, i.e. 2.8×2.7 cm.
Rats 1-4 were followed until death. Rats 3 and 4 received 0.5 ml of Ginkgo biloba's extract, every day. The tumors increased slower in all 4 animals receiving plant extracts than the controls. […]
Prolactin and/or growth hormone administration to diminish these effects was also evaluated. […]

B1: prolactine: ovine prolactine from Sigma, neuroendocrine hormone (protein, UniProt P01240 31-229, looked up)
Prolactin: TPVCPNGPGNCQVSLRDLFDRAVMVSHYIHNLSSEMFNEFDKRYAQGKGFITMALNSCHTSSLPTPEDKEQAQQTHHEVLMSLILGLLRSWNDPLYHLVTEVRGMKGVPDAILSRAIEIEEENKRLLEGMEMIFGQVIPGAKETEPYPVWSGLPSLQTKDEDARHSAFYNLLHCLRRDSSKIDTYLKLLNCRIIYNNNC
tumor at necropsy, Rat 4 compared with Rat 1: smaller size of the tumor with less microscopic necrosis
